The series “crystal structure” deals with the molecule itself. Nature of the series: crystal structure.
The series “SEC” deals with the molecule itself. Nature of the series: SEC. Background: Size exclusion chromatography separates by hydrodynamic size, large species first.

B1: GluN1-NTD (crystallised; from GluN1-NTD-8His) (domain or fragment)
chain: not shown
modifications: N-linked N-acetyl glucosamine at N61, N203, N239, N276 and N300 (EndoH treated)
Take B1: the binding result in “crystal structure” is reported as “binds”.

B2: GluN1-NTD-Y109C, purified (gel filtration and negative stain EM) (domain or fragment)
chain: not shown
For the protein B2, the “stoichiometry N” value in “SEC” is 2.

What is called stoichiometry N is the number of molecules, sites or subunits per partner or assembly.

These data come from publication PMC3063151 (The Journal of neuroscience : the official journal of the …, 2011).
